Experimental data reported in publication PMC9508527, “Two-component carnitine monooxygenase from Escherichia coli: functional characterization, inhibition and mutagenesis of the molecular interface” (Bioscience Reports, 2022).

How the values were obtained:
Experiment in all cases: cell-based or functional assay
YeaW variant K138S = biological target: T1, YeaW variant K138S (E. coli, UniProt P0ABR7 1-374, K138S)
T1 sequence (looked up): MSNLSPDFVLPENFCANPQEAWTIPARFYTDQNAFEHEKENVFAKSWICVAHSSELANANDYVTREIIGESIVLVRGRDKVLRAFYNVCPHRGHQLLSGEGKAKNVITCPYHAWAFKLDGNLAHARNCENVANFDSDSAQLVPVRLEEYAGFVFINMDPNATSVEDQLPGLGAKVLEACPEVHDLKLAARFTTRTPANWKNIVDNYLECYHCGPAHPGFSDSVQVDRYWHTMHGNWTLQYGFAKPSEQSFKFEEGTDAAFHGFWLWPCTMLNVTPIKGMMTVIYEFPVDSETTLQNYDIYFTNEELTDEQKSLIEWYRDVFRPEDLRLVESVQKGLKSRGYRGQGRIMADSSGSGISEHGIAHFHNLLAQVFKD

YeaW variant K117S = biological target: T2, YeaW variant K117S (E. coli, UniProt P0ABR7 1-374, K117S)
T2 sequence (looked up): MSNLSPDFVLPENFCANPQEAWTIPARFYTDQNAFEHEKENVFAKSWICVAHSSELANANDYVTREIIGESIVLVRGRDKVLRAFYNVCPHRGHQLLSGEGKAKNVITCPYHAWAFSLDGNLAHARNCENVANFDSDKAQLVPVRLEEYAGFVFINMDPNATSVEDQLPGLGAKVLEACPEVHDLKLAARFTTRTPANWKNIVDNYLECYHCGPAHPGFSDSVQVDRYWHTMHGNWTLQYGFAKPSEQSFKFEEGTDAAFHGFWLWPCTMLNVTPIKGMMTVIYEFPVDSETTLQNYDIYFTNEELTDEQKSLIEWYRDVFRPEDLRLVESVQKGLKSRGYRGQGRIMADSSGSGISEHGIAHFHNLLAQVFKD

YeaW variant D135K = biological target: T3, YeaW variant D135K (E. coli, UniProt P0ABR7 1-374, D135K)
T3 sequence (looked up): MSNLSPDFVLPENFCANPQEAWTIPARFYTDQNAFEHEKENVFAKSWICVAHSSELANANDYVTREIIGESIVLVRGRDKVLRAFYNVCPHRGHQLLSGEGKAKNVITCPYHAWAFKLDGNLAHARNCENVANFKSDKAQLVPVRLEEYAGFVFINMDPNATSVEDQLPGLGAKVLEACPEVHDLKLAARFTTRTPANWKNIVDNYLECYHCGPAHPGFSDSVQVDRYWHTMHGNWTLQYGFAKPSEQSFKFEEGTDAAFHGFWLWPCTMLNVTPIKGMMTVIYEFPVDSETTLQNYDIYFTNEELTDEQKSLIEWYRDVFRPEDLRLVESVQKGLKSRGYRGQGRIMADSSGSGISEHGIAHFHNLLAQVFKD

YeaW variant R83Q = biological target: T4, YeaW variant R83Q (E. coli, UniProt P0ABR7 1-374, R83Q)
T4 sequence (looked up): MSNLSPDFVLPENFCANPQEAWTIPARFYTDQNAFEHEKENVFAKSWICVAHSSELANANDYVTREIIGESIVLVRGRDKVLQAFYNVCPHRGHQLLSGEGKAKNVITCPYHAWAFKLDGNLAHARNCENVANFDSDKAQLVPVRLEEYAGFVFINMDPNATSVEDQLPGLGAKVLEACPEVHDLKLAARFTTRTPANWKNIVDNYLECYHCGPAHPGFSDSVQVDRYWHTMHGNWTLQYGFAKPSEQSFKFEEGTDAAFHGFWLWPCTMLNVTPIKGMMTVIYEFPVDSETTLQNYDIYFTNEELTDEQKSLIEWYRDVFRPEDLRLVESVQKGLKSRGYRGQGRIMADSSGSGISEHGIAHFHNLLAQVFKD

YeaW variant D221K = biological target: T5, YeaW variant D221K (E. coli, UniProt P0ABR7 1-374, D221K)
T5 sequence (looked up): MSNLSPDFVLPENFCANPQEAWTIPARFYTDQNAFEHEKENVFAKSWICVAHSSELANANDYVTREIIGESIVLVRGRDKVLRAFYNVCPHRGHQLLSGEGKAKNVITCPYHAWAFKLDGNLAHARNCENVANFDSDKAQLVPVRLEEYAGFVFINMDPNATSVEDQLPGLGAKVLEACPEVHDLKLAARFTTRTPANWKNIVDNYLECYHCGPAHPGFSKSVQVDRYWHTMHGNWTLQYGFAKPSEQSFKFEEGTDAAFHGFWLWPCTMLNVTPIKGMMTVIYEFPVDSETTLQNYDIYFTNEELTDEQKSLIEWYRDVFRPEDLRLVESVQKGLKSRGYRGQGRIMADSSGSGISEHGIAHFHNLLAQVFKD

YeaW variant K104E = biological target: T6, YeaW variant K104E (E. coli, UniProt P0ABR7 1-374, K104E)
T6 sequence (looked up): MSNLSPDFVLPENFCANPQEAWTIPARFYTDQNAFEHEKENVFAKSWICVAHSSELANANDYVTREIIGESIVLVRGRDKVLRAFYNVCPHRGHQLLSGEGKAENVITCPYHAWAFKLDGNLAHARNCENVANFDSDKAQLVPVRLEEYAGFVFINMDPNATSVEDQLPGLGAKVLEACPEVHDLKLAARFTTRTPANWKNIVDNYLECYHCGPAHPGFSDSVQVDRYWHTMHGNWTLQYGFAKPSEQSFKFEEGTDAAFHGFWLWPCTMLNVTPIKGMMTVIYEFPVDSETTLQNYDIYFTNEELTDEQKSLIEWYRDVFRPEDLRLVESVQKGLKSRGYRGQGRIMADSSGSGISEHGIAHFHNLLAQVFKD

YeaW variant E330K = biological target: T7, YeaW variant E330K (E. coli, UniProt P0ABR7 1-374, E330K)
T7 sequence (looked up): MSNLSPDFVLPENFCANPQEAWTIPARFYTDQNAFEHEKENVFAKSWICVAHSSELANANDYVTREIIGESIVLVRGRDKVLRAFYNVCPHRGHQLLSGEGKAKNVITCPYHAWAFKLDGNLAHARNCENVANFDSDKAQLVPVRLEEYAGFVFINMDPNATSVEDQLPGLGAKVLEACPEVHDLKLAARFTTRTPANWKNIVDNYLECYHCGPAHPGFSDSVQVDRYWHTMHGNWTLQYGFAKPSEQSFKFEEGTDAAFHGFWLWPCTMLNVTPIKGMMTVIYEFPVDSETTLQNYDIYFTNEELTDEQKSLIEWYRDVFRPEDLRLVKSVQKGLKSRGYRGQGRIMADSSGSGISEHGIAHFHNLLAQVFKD

B1: YeaX, reductase component of carnitine monooxygenase from E. coli (enzyme, UniProt P76254 1-321, looked up)
chain: MSDYQMFEVQVSQVEPLTEQVKRFTLVATDGKPLPAFTGGSHVIVQMSDGDNQYSNAYSLLSSPHDTSCYQIAVRLEENSRGGSRFLHQQVKVGDRLTISTPNNLFALIPSARKHLFIAGGIGITPFLSHMAELQHSDVDWQLHYCSRNPESCAFRDELVQHPQAEKVHLHHSSTGTRLELARLLADIEPGTHVYTCGPEALIEAVRSEAARLDIAADTLHFEQFAIEDKTGDAFTLVLARSGKEFVVPEEMTILQVIENNKAAKVECLCREGVCGTCETAILEGEADHRDQYFSDEERASQQSMLICCSRAKGKRLVLDL
YeaW variant K138S
  L-carnitine depletion activity (wild type = 100%): 96%
  O2 depletion activity (wild type = 100%): 97%
YeaW variant K117S
  L-carnitine depletion activity (wild type = 100%): 122%
  O2 depletion activity (wild type = 100%): 109%
YeaW variant D135K
  L-carnitine depletion activity (wild type = 100%): 94%
  O2 depletion activity (wild type = 100%): 97%
YeaW variant R83Q
  L-carnitine depletion activity (wild type = 100%): 51%
  O2 depletion activity (wild type = 100%): 59%
YeaW variant D221K
  L-carnitine depletion activity (wild type = 100%): 81%
  O2 depletion activity (wild type = 100%): 76%
YeaW variant K104E
  L-carnitine depletion activity (wild type = 100%): 6%
  O2 depletion activity (wild type = 100%): 12%
YeaW variant E330K
  L-carnitine depletion activity (wild type = 100%): 55%
  O2 depletion activity (wild type = 100%): 67%
